Here are results for 30 sequences from the supplement of paper PMC9170038.

The data set has as its system MS2 coat protein. The data set can be described thus: apparent KD of MS2 coat protein; designed switch direction (-1 OFF switch, 1 ON switch): -1; higher = weaker reporter binding. In short, it runs like this: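 For each design, the apparent KD is the median over clusters of curves fitted to normalised cluster fluorescence. Clusters held RNA switches with common flanks, transcribed on Illumina chips by stalled E. coli RNA polymerase. These were titrated with SNAP-549-labelled MS2 coat protein, doubling from 0.7 or 1.5 nM to 3 µM, without input, with 200 uM small-molecule ligand, or with an oligonucleotide input.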

Where [1] appears, read: input ligand: microRNA oligo, concentration not stated.
Setting [2] is: Eterna round: R95, input ligand: microRNA oligo, concentration not stated.

As for “CAAUAGCGAGGAUAUACAUGAGGAUCACCCAUGUGAUCCUUAGGCUGUUGAAGCCUAUGUAGAAGGCGCAAAUU [jl-ex3.4.57 ViennaUCT mod] (Eterna round: R97, puzzle: Exclusion 3)”, the “apparent KD of MS2 coat protein” value came out at 198 nM (input ligand: FMN 200 uM) and 138 nM (input ligand: none).

Consider “CAAUAGGGAGGAUAUCCAAUAUAUGACAUGAGGAUCACCCAUGUUUCCACUCGUACCUCCGGAGAAGGCCCAUAAC [Ex5 #7] (Eterna round: R97, puzzle: Exclusion 5)”, for which the “apparent KD of MS2 coat protein” value by setting is: (input ligand: FMN 200 uM) 21.1 nM; (input ligand: none) 21.7 nM.

Consider “CAAUAUUAUCGAGGAUAUCCUAUUGUAUUUCUGGGAGAAGGCGGACUCAACAUGAGGAUCACCCAUGUAAGACGGGUACUAGAU [Ex NG1 #20] (Eterna round: R96, puzzle: Exclusion NG 1)”, for which the “apparent KD of MS2 coat protein” value by setting is: (input ligand: FMN 200 uM) 119 nM; under setting [1], 81 nM; (input ligand: none) 98.5 nM.

Take “CAAUGAGGAGUGAGGAUAUCGUGUUCGAAAGAACGUGAGAAGGCACAUGAGGAUCACCCAUGUGAUCCUCAUUG [Omei Ex4B A24] (Eterna round: R97, puzzle: Brourd's mod of Exclusion 4)”: the “apparent KD of MS2 coat protein” value runs as follows: (input ligand: FMN 200 uM) 98.2 nM; (input ligand: none) 53.3 nM.

On to “CAAUGUACCUAGGAUAUAACCUACGACAUUGGGUUAGAAGGAGGAACAUGAGGAUCACCCAUGUGACUUCGCAA [Abiisbe] (puzzle: Exclusion 6)”, for which the “apparent KD of MS2 coat protein” value under setting [2] is 9.5 nM.

As to “CAAUUCCGAGGAUAUACAUGAGGAUCACCCAUGUCGGGCCUCAGCGUUUAGCGCCUAAGUAGAAGGUGGGUUUC [JL Riri mod 4] (Eterna round: R96, puzzle: Exclusion 3)”, the “apparent KD of MS2 coat protein” value by setting is: (input ligand: FMN 200 uM) 47.1 nM; under setting [1], 31.7 nM; (input ligand: none) 46.6 nM.

As to “CAAUUCCGAGGAUAUACAUGAGGAUCACCCAUGUCGGGCCUCAGCGUUUAGCGCCUAAGUAGAAGGUGGGUUUC [JL Riri mod 4] (puzzle: Exclusion 3)”, the “apparent KD of MS2 coat protein” value under setting [2] is 37.1 nM.

For “CAAUUCUGAGGAUAUGUGCCUCUGGACAUGAGGAUCACCCAUGUGGAGGCUGUAUGGGAGGCAGAAGGUAGAGAUC [Eternabot (L1) Solution 7] (Eterna round: R97, puzzle: Exclusion 5)”, the “apparent KD of MS2 coat protein” value reads like this: (input ligand: FMN 200 uM) 16.4 nM; (input ligand: none) 18.2 nM.

On to “CACACACAUGAGGAUCACCCAUGUCAGGAUAUCGACACACACCCACACAAACAAACCACGAGAAGGGACGGCCA [E4 1] (Eterna round: R97, puzzle: Exclusion 1)”, for which the “apparent KD of MS2 coat protein” value runs as follows: (input ligand: FMN 200 uM) 37 nM; (input ligand: none) 48.6 nM.

On to “CACACGUAAGGAUAUACAACGGAAACGGGCGCGCGGGCCUCACAUGAGGAUCACCCAUGUAGAAGGUGCACGGG [Eternabot (Original) Solution 18] (Eterna round: R97, puzzle: Exclusion 2)”, for which the “apparent KD of MS2 coat protein” value was found to be 41.7 nM (input ligand: FMN 200 uM) and 50.3 nM (input ligand: none).

Consider “CACAGGAGACGGAGAUCCAACAUGAGGAUCACCCAUGUCUCAAAAGCUUUUUGCUUGUCUUAUCCUCCUCUCUUGAC [Mat - Sensor, turn-off var - Eli Mod - D60] (Eterna round: R97, puzzle: Sensor, turn-off variant 1)”, for which the “apparent KD of MS2 coat protein” value runs as follows: (input ligand: FMN 200 uM) 26 nM; (input ligand: none) 28.1 nM.

“CACAUCAAAGGAUAUCUGGACCAAAACAUGAGGAUCACCCAUGUAUGAACAUGGCUCGACGGAGAAGGUUGGCUUC [Eternabot (L1) Solution 51] (Eterna round: R97, puzzle: Exclusion 5)”: the “apparent KD of MS2 coat protein” value (input ligand: FMN 200 uM) was 86.2 nM and the “apparent KD of MS2 coat protein” value (input ligand: none) is 79.3 nM.

For “CACCCUUCAGGAUAUACAUGAGGAUCACCCAUGUGUUCCAGCUAGGAAACUAGCAAAUGUAGAAGGGAAGGGUG [Mat - Exclusion 3 - JL Mod - D5] (Eterna round: R97, puzzle: Exclusion 3)”, the “apparent KD of MS2 coat protein” value (input ligand: FMN 200 uM) turned out to be 452 nM and the “apparent KD of MS2 coat protein” value (input ligand: none) came out at 108 nM.

Take “CACCGUAACAGAGGAUAUGAAACAUGAGGAUCACCCAUGUAAUAAAUGAGAAUUUCGAAUGUACCUCAGAAGGCUGAAACCGGC [Ostricism 82 - Jieux - Exclusion NG 2] (Eterna round: R96, puzzle: Exclusion NG 2)”: the “apparent KD of MS2 coat protein” value reads like this: (input ligand: FMN 200 uM) 56.8 nM; under setting [1], 31.9 nM; (input ligand: none) 43 nM.

Regarding “CACCGUUACAGAGGAUAUCUUACAUGAGGAUCACCCAUGUAAUAAAUGAGAAUUUCGGAUGUAUGAGAGAAGGCUGGAAUCGGC [Ostricism 38 - Jieux - Exclusion NG 2] (Eterna round: R96, puzzle: Exclusion NG 2)”, under setting [1], the “apparent KD of MS2 coat protein” value is 16.3 nM.

In the case of “CACCGUUACAGAGGAUAUGGUACAUGAGGAUCACCCAUGUAAUAAAUGAGAAUUUCGGAUGUAUUCCAGAAGGCUGUAAUCGGC [Ostricism 65 - Jieux - Exclusion NG 2] (Eterna round: R96, puzzle: Exclusion NG 2)”, the “apparent KD of MS2 coat protein” value worked out at 74.9 nM (input ligand: FMN 200 uM), 34.1 nM under setting [1] and 53.5 nM (input ligand: none).

For “CACCGUUAGAGAGGAUAUCGUACAUGAGGAUCACCCAUGUAAUAAAUGAGAAUUUCGGAUGUAUGCGAGAAGGCUCGAAUCGGC [Ostracism 33 - Jieux - Exclusion NG 2] (Eterna round: R96, puzzle: Exclusion NG 2)”, the “apparent KD of MS2 coat protein” value under setting [1] is 38.6 nM.

Turning to “CACCUGAACACAGGAUAUCAUACAUGAGGAUCACCCAUGUAAUAAAUGAGAAUUUCGAAUGUAAUUGAGAAGGGUGGAUAAGGC [Ostricism 90 - Jieux - Exclusion NG 2] (Eterna round: R96, puzzle: Exclusion NG 2)”, the “apparent KD of MS2 coat protein” value reads like this: (input ligand: FMN 200 uM) 97.8 nM; under setting [1], 34.6 nM; (input ligand: none) 41.1 nM.

“CACCUGAACUCAGGAUAUCAUACAUGAGGAUCACCCAUGUAAUAAAUGAGAAUUUCGAAUGUAAUUGAGAAGGGAGAAUAAGGC [Ostricism 98 - Jieux - Exclusion NG 2] (Eterna round: R96, puzzle: Exclusion NG 2)”: the “apparent KD of MS2 coat protein” value was 88.8 nM (input ligand: FMN 200 uM), 33.8 nM under setting [1] and 38.8 nM (input ligand: none).

Take “CACCUGAAGUCAGGAUAUCAUACAUGAGGAUCACCCAUGUAAUAAAUGAGAAUUUCGAAUGUAAUUGAGAAGGGACAAUAAGGC [Ostricism 97 - Jieux - Exclusion NG 2] (Eterna round: R96, puzzle: Exclusion NG 2)”: the “apparent KD of MS2 coat protein” value (input ligand: FMN 200 uM) was 93.2 nM, the “apparent KD of MS2 coat protein” value under setting [1] stood at 34 nM and the “apparent KD of MS2 coat protein” value (input ligand: none) was determined as 44.2 nM.

For the sequence “CACCUGAGAGGAUAUACGUUGAUGUUAUGCUAUGGAAAGUUACAUGAGGAUCACCCAUGUAGAAGGCUCAGGUA [Eternabot (L2) Solution 48] (Eterna round: R97, puzzle: Exclusion 2)”, the “apparent KD of MS2 coat protein” value runs as follows: (input ligand: FMN 200 uM) 75.4 nM; (input ligand: none) 18.8 nM.

On to “CACUGGACAGGAUAUGUUCUUGAGCACUUGAGGAUCACCCAAGUCAUCAAGAACUCAGGCACAGAAGGGUUUAUGC [salish99_ex5_r4_012] (Eterna round: R97, puzzle: Exclusion 5)”, for which the “apparent KD of MS2 coat protein” value is, setting by setting: (input ligand: FMN 200 uM) 24.7 nM; (input ligand: none) 14 nM.

Take “CACUGGACAGGAUAUGUUCUUGAGCACUUGAGGAUCACCCAAGUCAUCAAGAACUCAGGCACAGAAGGGUUUAUGG [salish99_ex5_r4_013] (Eterna round: R97, puzzle: Exclusion 5)”: the “apparent KD of MS2 coat protein” value is, setting by setting: (input ligand: FMN 200 uM) 38.9 nM; (input ligand: none) 16.9 nM.

“CACUGGACAGGAUAUGUUCUUGAGCACUUGAGGAUCACCCAAGUCAUCAAGAACUCAGGCACAGAAGGGUUUAUGU [salish99_ex5_r4_014] (Eterna round: R97, puzzle: Exclusion 5)”: the “apparent KD of MS2 coat protein” value is 44.5 nM (input ligand: FMN 200 uM) and 15.8 nM (input ligand: none).

With “CAGAAACAUGAGGAUCACCCAUGUGAGGAUAUGAAAAAGAAAAGAAAAGAAAGAAGAAUCAGAAGGCACAAAGG [salish99-ex1_r3_081] (puzzle: Exclusion 1)”, the “apparent KD of MS2 coat protein” value is, setting by setting: (Eterna round: R95, input ligand: FMN 200 uM) 39.9 nM; under setting [2], 30.8 nM; (Eterna round: R95, input ligand: none) 38.5 nM.

Regarding “CAGAACUGAGGAUAUACAUGAGGAUCACCCAUGUGUUCCAGCUAGGAGACUAGCAUAUGUAGAAGGCAGUUCUG [Mat - Exclusion 3 - JL Mod - D11] (Eterna round: R97, puzzle: Exclusion 3)”, the “apparent KD of MS2 coat protein” value is 587 nM (input ligand: FMN 200 uM) and 359 nM (input ligand: none).

With “CAGAAGGGAGGAUAUACAUGACCGUUUUAAUGGUUUUUAGUACAUGAGGAUCACCCAUGUAGAAGGCCCGAACU [EX2 B.23] (Eterna round: R97, puzzle: Exclusion 2)”, the “apparent KD of MS2 coat protein” value (input ligand: FMN 200 uM) amounted to 51 nM and the “apparent KD of MS2 coat protein” value (input ligand: none) amounted to 21.8 nM.

For “CAGAGGAGACGGAGAUCCAACAUGAGGAUCACCCAUGUCUCAAAAGCUUUUUGCUUGUCUUAUCCUCCUCUCUUCAC [Mat - Sensor, turn-off var - Eli Mod - D59] (Eterna round: R97, puzzle: Sensor, turn-off variant 1)”, the “apparent KD of MS2 coat protein” value was found to be 27.1 nM (input ligand: FMN 200 uM) and 28.1 nM (input ligand: none).

“CAGAUGGGUAACUACACCCACAUGAGGAUCACCCAUGUACACAUAGCUUACGCUCGUCUUAAGCGUGUUUUCGUAGC [Eternabot (L2) Solution 10] (Eterna round: R97, puzzle: Sensor, turn-off variant 1)”: the “apparent KD of MS2 coat protein” value (input ligand: FMN 200 uM) came to 32 nM and the “apparent KD of MS2 coat protein” value (input ligand: none) came to 33.4 nM.

In the case of “CAGCCCUGAGGAUAUCCCUCCUUGUACAUGAGGAUCACCCAUGUUCUCCUCUGGGCUUUGGGAGAAGGCAGAUCUC [Megrez-6.9] (Eterna round: R97, puzzle: Exclusion 5)”, the “apparent KD of MS2 coat protein” value is, setting by setting: (input ligand: FMN 200 uM) 41.1 nM; (input ligand: none) 46.5 nM.
